Among the data in PMC5025603 are Km and Vmax values, retold here.

Substrate in the data set: CC(O)C(=O)O
Put plainly: cells, lysate or membranes. To be noted: labelled compound, KH2PO4 pH 5.0, room temperature, 10 s uptake, strain printed GLS in table, GS in text and methods, host background uptake not subtracted.

B1: PAS (putative lactate transporter of P. pastoris) (Komagataella phaffii GS115) (protein)
chain: MSHSIHSAAHKSVMTDIEKQHDRIHPHDHPVTPLEKPDLSAKSIKHYFATRLSTLVPKAEDFKDKRYIFNPFMVLRELTPKNWNFFMCGFAAWTWDAVDFFSVSLNVTNIAKDLNVTTKDVTWGLTLVLMLRSVGAISFGLWADRKGRKWPFIFNMILLIVLQIGLGFVNTYKQFLGVRAVFGIAMGAVFGNASSLALDDCPPRAKGIVSGIFQQGYAFGYLLVVVFQRAITDNASKSWRALFWFSAGPPVLIILWRLVLPETDAFIAQQNLRMETSDGQTASQQFVKQGKDALRVYWLMLIYMIIMMAAFNFSSHSSQDLYPTLLTVQYEFGKDRSTVTNVVANLGAIVGGIFWGHMSNFIGRRLAVLLCCIVGGAFIYPWAFINGSGINAGAFFLQFAVQGGWGVCPVHLAEMSPPHFRAFVTGTTYQLGNLASSGSSTILADIGERFPIYDENGVRKEGVYDYAKVMAIFMGAVFAFLFIVMLLGPERRGASNLDDLQDYIDDWEQKDLDNKKGIETEFIEDVQLMEAVSNEDLSEKGNEKVEAFEGNK
As to B1, the Km (as a rule, the concentration of substrate that gives half-maximal velocity) came to 157.40 ± 25.46 µM and the maximal velocity (Vmax) – broadly, the top rate of the reaction or transport when substrate is in excess – was 452 µmol/min/mg.
